The values that follow come from paper PMC11016868.

As a reminder, the Kd is the constant that tells how readily two partners part at equilibrium.

In one series the target is PhoP (UniProt P71814 1-247). The experiment in a line: fluorescence polarization. (In general: In fluorescence polarisation assays a small probe gives low polarisation when free and higher when bound to something large.)
In series [1] the target is T1, MtrAC (MtrA DNA-binding domain) (UniProt P9WGM7 131-228).
T1 sequence: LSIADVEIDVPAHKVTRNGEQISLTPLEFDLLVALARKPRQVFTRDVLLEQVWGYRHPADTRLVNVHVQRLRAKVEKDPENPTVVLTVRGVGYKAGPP
The experiment in a line: fluorescence polarization.

B1: PhoP DNA (from PhoP-DNA complex, 5ED4) (dsDNA)
DNA 1: GATTCACAGCTGATTCACAGCATCTA
DNA 2: TAGATGCTGTGAATCAGCTGTGAATC
B1: in the series with PhoP, the binding result is reported as “binds”.

B2: dnaA promoter DNA (dsDNA)
DNA 1: GGCGGTGTAGTTATCACGCCGTTT
DNA 2: AAACGGCGTGATAACTACACCGCC
For B2, the Kd in series [1] was found to be 1.23 ± 0.26 µM.
